The results in this text go back to patent US20220259593A1, “CONTROL OF MAMMALIAN GENE DOSAGE USING CRISPR” (The Regents of the University of California, priority 2019, published 2022).

The labels stand for the following.
B1: cr183 (nucleic acid)
guide: GTTTAAGAGCTAAGCTGGAAACAGCATAGCAAGTTTAAATAAGGTTAATCCGTTATCAACTTGAGAAAGTGGCACCGAGTCGGTGCT
modifications: listed as DNA, chemistry not fully specified
B2: cr240 (nucleic acid)
guide: GTTTAAGAGCTAAGCTGGAAACAGCATAGCAAGTTTAAATAAGGCTAGTCCGTTAACAACTTGAAAAAGTGGCACCGAGTCGGTGCT
modifications: listed as DNA, chemistry not fully specified
B3: cr101 (nucleic acid)
guide: GTTTAAGAGCTAAGCTGGAAACAGCATAGCAAGTTTAAATAAGGCTAGTCCGTTATCAACTTGAAAAAGTGGCGCCGAGTCGGTGCT
modifications: listed as DNA, chemistry not fully specified
B4: cr265 (nucleic acid)
guide: GTTTAAGAGCTAAGCTGGAAACAGCATAGCAAGTTTAAATAAGGTTAGTCCGTTATCAACTTGAAAAAGTGGCACCGAGTCGGTGCT
modifications: listed as DNA, chemistry not fully specified
B5: cr770 (nucleic acid)
guide: GTTTAAGAGCTAAGCTGGAAACAGCATAGCAAGCTTAAATAAGGCTAGTCCGTTATCAACTTGAAAAAGTGGAACCGAGTCGGTTCT
modifications: listed as DNA, chemistry not fully specified
B6: cr317 (nucleic acid)
guide: GTTTAAGAGCTAAGCTGGAAACAGCATAGCAAGTTTAAATATGGCTAGTCCGTTATCAACTTGAAAAAGTGGCACCGAGTCGGTGCT
modifications: listed as DNA, chemistry not fully specified
B7: cr682 (nucleic acid)
guide: GTTTAAGAGCTAAGCTGGAAACAGCATAGCAAGTTTAAATAAGCGTACTGCGTTATCAACTTGAAAAAGTGGCACCGAGTCGGTGCT
modifications: listed as DNA, chemistry not fully specified
B8: cr175 (nucleic acid)
guide: GTTTAAGAGCTAAGCTGGAAACAGCATAGCAAGTTTAAATAAGGCTAGTCCGTTATCCACTTGAAAAAGTGGCACCGAGTCGGTGCT
modifications: listed as DNA, chemistry not fully specified
B9: cr620 (nucleic acid)
guide: GTTTAAGAGCTAAGCTGGAAACAGCATAGCAAGTTTAAATAAGGGTACTCCGTTATCAACTTGAAAAAGTGGAACTGAGTCAGTTCT
modifications: listed as DNA, chemistry not fully specified
B10: cr493 (nucleic acid)
guide: GTTTAAGAGCTAAGCTGGAAACAGCATAGCAAGTTTAAATAAGGCTAGCCCGTTACAAACTTGAAAAAGTGGCACCGAGTCGGTGCT
modifications: listed as DNA, chemistry not fully specified
B11: cr824 (nucleic acid)
guide: GTTTAAGAGCTAAGCTGGAAACAGCATAGCAAGTTTAAATAAGGCTAGTCCGTTATCAACTTGACAAAGTGGCACCGAGGCGGTGCT
modifications: listed as DNA, chemistry not fully specified
B12: cr071 (nucleic acid)
guide: GTTTACGGGCTAAGCTGGAAACAGCATAGCAAGTTTAAATAAGGCTAGTCCGTTATCAACTTGAAAAAGTGGCACCGAGTCGGTGCT
modifications: listed as DNA, chemistry not fully specified
B13: cr675 (nucleic acid)
guide: GTTTAAGAGCTAAGCTGGAAACAGCATAGCAAGCTTAAATAAGGCTAGTCCGTTATCACCTTGAAAAAGGGGCACCGAGTCGGTGCT
modifications: listed as DNA, chemistry not fully specified
B14: cr530 (nucleic acid)
guide: GTTTAAGAGCTAAGCTGGAAACAGCATAGCAAGTTTAAATAAGGCTAGCCCGATATCAACTTGAACAAGTGGCACCGAGTCGGTGCT
modifications: listed as DNA, chemistry not fully specified
B15: cr177 (nucleic acid)
guide: GTTTAAGAGCTAAGCTGGAAACAGCATAGCAAGTTTAAAGAAGGCTAGTCCGTTATCAACTTGAAAAAGTGGCACCGAGTCGGTGCT
modifications: listed as DNA, chemistry not fully specified
B16: cr611 (nucleic acid)
guide: GTTTAAGAGCTAAGCTGGAAACAGCATAGCAAGTTTAAATAAGGCTAGTCCGTTAGAAACTTGAAAAAGTGGCACCGAATCGGTGCT
modifications: listed as DNA, chemistry not fully specified
B17: cr120 (nucleic acid)
guide: GTTTAAGAGCTAAGCTGGAAACAGCATAGCAAGTTTAAATAAGGCTAGTCCGTTATCAACTTGAGAAAGTGGCACCCAGTGGGTGCT
modifications: listed as DNA, chemistry not fully specified
B18: cr255 (nucleic acid)
guide: GTTTAAGAGCTAAGCTGGAAACAGCATAGCAAGCTTAAATAAGGCTAGTCCGTTATCAACTTGAAAAAGTGGGACCGAGTCGGTCCT
modifications: listed as DNA, chemistry not fully specified
B19: cr399 (nucleic acid)
guide: GTTTAAGAGCTAAGCTGGAAACAGCATAGCAAGTTTAAATAAGGCTAGTCCGTTATCAACTTGAAAAAGTGGCACCGAGTCCGTGCT
modifications: listed as DNA, chemistry not fully specified
B20: cr124 (nucleic acid)
guide: GTTTAAGAGCTAAGCTGGAAACAGCATAGCATGTTTAAATATGGCTAGTCCGTTATCAACTTGAAAAAGTGGCACCGAGTCGGTGCT
modifications: listed as DNA, chemistry not fully specified
B21: cr190 (nucleic acid)
guide: GTTTAAGAGCTAAGCTGGAAACAGCATAGCAAGTTTAAATAAGGCTAGTCCGTAATTAACTTGAAAAAGTGGCACCGAGACGGTGCT
modifications: listed as DNA, chemistry not fully specified
B22: cr369 (nucleic acid)
guide: GTTTAAGAGCTAAGCTGGAAACAGCATAGCAAGTTTAAATAAGGCTAGTCCGTTATCAAATTGAAAAAGTGGCACCGAGTCGGTGCT
modifications: listed as DNA, chemistry not fully specified
B23: cr005 (nucleic acid)
guide: GCTTAAGAGCTAAGCTGGAAACAGCATAGCAAGTTTAAATAAGGCTAGTCCGTTATCAACTTGAAAAAGTGGCACCGAGTCGGTGCT
modifications: listed as DNA, chemistry not fully specified
B24: cr659 (nucleic acid)
guide: GTTTAAGAGCTAAGCTGGAAACAGCATAGCAAGTTTACATAAGGCTAGTCCGTTATCAACTTGAAAAAGTGGCACCGAGTCGGTGCT
modifications: listed as DNA, chemistry not fully specified
B25: cr548 (nucleic acid)
guide: GTTTAAGAGCTAAGCTGGAAACAGCATAGCAAGTTTAAATAAGGCTAGTCCGTTATCAACTTGAAAAAGTGGCAACGAGTCGGTGCT
modifications: listed as DNA, chemistry not fully specified
B26: cr721 (nucleic acid)
guide: GTTTAAGAGCTAAGCTGGAAACAGCATAGCAAGTTTAAATAAGGCTAGTCCGCTATTAACTTGAAAAAGTGGCACCGAATCGGTGCT
modifications: listed as DNA, chemistry not fully specified
B27: cr016 (nucleic acid)
guide: GTTTATGAGCTAAGCTGGAAACAGCATAGCAAGTTTAAATAAGGCTAGTCCGTTATCAACTTGAAAAAGTGGCACCGAGTCGGTGCT
modifications: listed as DNA, chemistry not fully specified
B28: cr765 (nucleic acid)
guide: GTTTAAGAGCTAAGCTGGAAACAGCATAGCAAGTTTAAATAAGGCTAGTCCGTTATCAACTGGAAACAGTGGCACTCAGTGAGTGCT
modifications: listed as DNA, chemistry not fully specified
B29: cr599 (nucleic acid)
guide: GTTTAAGAGCTAAGCTGGAAACAGCATAGCAAGTTTAAATAAGGCTAGCCCGTTATCAACGTGAAAAAGTGGCACCGAGTCGGTGCT
modifications: listed as DNA, chemistry not fully specified

One data set concerns K562 CRISPRi cells. Kind of data set: Constant region variant library pooled growth screen, K562. The data set is classed as cell-based, human. As to conditions: sgRNA constant region variants; activity relative to the original, un-modified constant region cr995. The method in brief:
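Relative activity expresses each targeting sequence:constant region pair's phenotype over that of the unmodified constant region. Pooled growth screen ran in K562 CRISPRi cells in duplicate spinner-flask replicates, with puromycin selection and 4–8 days' growth at >2000× coverage; library paired variants with 36 targeting sequences.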
Molecule B1 came in with a Mean relative activity of 1.047.

B2 came in with a Mean relative activity of 1.046. In the case of B3, the Mean relative activity worked out at 1.048.

Still in this data set, the particulars now being: sgRNA constant region variants; relative to the original, un-modified constant region cr995; CRISPRi.
With B4, the Mean relative activity was found to be 0.5157. B5: the Mean relative activity is 0.4771. Same read-out and setting: the value for B6 was 0.5027; that for B7 was 0.4794; that for B8 was 0.4914. B9 gave a Mean relative activity of 0.4842.

The molecule B10 gave a Mean relative activity of 0.4736. Molecule B11 showed a Mean relative activity of 0.499. In turn, B12 showed a Mean relative activity of 0.475. Same read-out and setting: as for B13, the figure is 0.5084; as for B14, 0.4998. Regarding B15, the Mean relative activity was determined as 0.4771. For B16, the Mean relative activity was 0.4954. For the molecule B17, the Mean relative activity stood at 0.5005.

B18 displayed a Mean relative activity of 0.5097. Still for that read-out and setting: as for B19, the figure is 0.4727; as for B20, 0.4757; as for B21, 0.5036. As for B22, the Mean relative activity was determined as 0.4754.

As for B23, the Mean relative activity was determined as 0.5108. On the same count and under the same terms, as for B24, the figure is 0.504; as for B25, 0.513. On to B26, for which the Mean relative activity is on record as 0.4696. For B27, the Mean relative activity was 0.4876. In turn, B28 yielded a Mean relative activity of 0.4931. Turning to B29, the Mean relative activity is reported as 0.5112.
